For series [1], the target named is T1, PhoD (mPhoD) (Bacillus subtilis, UniProt P42251).
T1 sequence (P42251 57-583): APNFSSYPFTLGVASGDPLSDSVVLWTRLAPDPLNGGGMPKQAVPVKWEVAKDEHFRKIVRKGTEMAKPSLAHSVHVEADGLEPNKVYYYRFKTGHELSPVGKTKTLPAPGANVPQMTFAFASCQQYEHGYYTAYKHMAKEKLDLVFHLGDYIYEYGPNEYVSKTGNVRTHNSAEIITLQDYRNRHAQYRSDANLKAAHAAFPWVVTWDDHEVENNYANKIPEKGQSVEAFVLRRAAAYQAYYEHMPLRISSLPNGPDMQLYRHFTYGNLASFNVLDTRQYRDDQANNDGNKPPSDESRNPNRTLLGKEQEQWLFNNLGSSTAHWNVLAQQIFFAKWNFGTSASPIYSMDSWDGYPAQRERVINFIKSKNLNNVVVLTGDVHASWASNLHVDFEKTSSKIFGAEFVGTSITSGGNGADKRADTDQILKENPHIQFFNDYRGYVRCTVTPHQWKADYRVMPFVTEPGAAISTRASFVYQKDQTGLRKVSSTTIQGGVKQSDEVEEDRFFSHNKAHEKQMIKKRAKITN
Particulars: crystallised at pH 5.6 with phosphate; active site, coordinates Fe3+ and two Ca2+ ions; proposed product complex.

Substrate in series [2]: O=[N+]([O-])c1ccc(OP(=O)(O)O)cc1
Put plainly: purified protein. It is filed as biochemical, Bacillus subtilis. Particulars: pH 8.0, 25 °C, 100 mM Tris-HCl, 2 mM CaCl2, Ca2+-supplemented enzyme.

Regarding `O=P(O)(O)O` [phosphate], in series [1], the “X-ray crystal structure, 2 Å” value is reported as “the structure contains a phosphate molecule bound at the active site”.

B1: PhoD (mPhoD) (Bacillus subtilis subsp. subtilis str. 168) (protein)
chain: T1 sequence (P42251 57-583)
notes: mature domain, signal peptide removed; N-terminal Strep-SUMO tag cleaved by Ulp1; E. coli BL21(DE3) cytoplasm
B1: in series [2], the Michaelis constant (Km) came out at 50 µM and the kcat amounted to 1.2 s⁻¹.

Values taken from publication PMC4223295, “Crystal Structure of the Bacillus subtilis Phosphodiesterase PhoD Reveals an Iron and Calcium-containing Active Site” (The Journal of Biological Chemistry, 2014).
